PMC9701222, “Molecular basis for DNA recognition by the maternal pioneer transcription factor FoxH1”

How the values were obtained:
[1] = target: T1, FoxH1 FH domain (species not stated) (UniProt O75593); test: BLI; details: BLI: 20 mM Tris pH 7.6, 100 mM NaCl, 2 mM DTT, 0.02% Tween-20, 0.01% BSA, 25 C; EMSA: 100 mM Tris, 10% glycerol, 7.5 nM Cy5-DNA, 4 C
T1 sequence: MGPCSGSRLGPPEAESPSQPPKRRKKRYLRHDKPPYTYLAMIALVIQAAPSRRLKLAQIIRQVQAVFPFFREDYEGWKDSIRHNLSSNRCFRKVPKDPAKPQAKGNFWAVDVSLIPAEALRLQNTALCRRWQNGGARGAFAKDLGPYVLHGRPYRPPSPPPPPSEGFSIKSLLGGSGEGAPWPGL

hFoxA2 FH (Homo sapiens) = target: T2, hFoxA2 FH (Homo sapiens) (UniProt Q9Y261); test: BLI; details: BLI: 20 mM Tris pH 7.6, 100 mM NaCl, 2 mM DTT, 0.02% Tween-20, 0.01% BSA, 25 C; EMSA: 100 mM Tris, 10% glycerol, 7.5 nM Cy5-DNA, 4 C
T2 sequence: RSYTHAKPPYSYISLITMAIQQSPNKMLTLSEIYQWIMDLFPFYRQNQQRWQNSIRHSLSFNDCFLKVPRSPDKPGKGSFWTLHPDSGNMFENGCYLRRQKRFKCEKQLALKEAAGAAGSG

dFoxH1 FH [2] = target: T3, dFoxH1 FH (Danio rerio, UniProt Q9I9E1 86-210); test: X-ray; K+; BLI: 20 mM Tris pH 7.6, 100 mM NaCl, 2 mM DTT, 0.02% Tween-20, 0.01% BSA, 25 C; EMSA: 100 mM Tris, 10% glycerol, 7.5 nM Cy5-DNA, 4 C; details: protein: recombinant; tags: His-SUMO removed (Ulp1); blunt
T3 sequence: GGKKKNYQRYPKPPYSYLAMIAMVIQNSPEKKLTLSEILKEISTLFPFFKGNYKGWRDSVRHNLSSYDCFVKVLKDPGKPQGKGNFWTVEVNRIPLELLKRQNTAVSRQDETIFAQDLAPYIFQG

dFoxH1 FH [3] = target: T3, dFoxH1 FH; test: X-ray; BLI: 20 mM Tris pH 7.6, 100 mM NaCl, 2 mM DTT, 0.02% Tween-20, 0.01% BSA, 25 C; EMSA: 100 mM Tris, 10% glycerol, 7.5 nM Cy5-DNA, 4 C; details: protein: recombinant; tags: His-SUMO removed (Ulp1); blunt
hFoxA2 FH [4] = target: T4, hFoxA2 FH (Homo sapiens, UniProt Q9Y261 153-273); test: as above; details: protein: recombinant; tags: His-SUMO removed (Ulp1); blunt
T4 sequence: T2 sequence

hFoxA2 FH [5] = target: T4, hFoxA2 FH; test: EMSA; BLI: 20 mM Tris pH 7.6, 100 mM NaCl, 2 mM DTT, 0.02% Tween-20, 0.01% BSA, 25 C; EMSA: 100 mM Tris, 10% glycerol, 7.5 nM Cy5-DNA, 4 C; details: protein: recombinant; tags: His-SUMO removed (Ulp1); label: 5'-Cy5
hFoxA2 FH [6] = target: T4, hFoxA2 FH; test: BLI; BLI: 20 mM Tris pH 7.6, 100 mM NaCl, 2 mM DTT, 0.02% Tween-20, 0.01% BSA, 25 C; EMSA: 100 mM Tris, 10% glycerol, 7.5 nM Cy5-DNA, 4 C; details: protein: recombinant; tags: His-SUMO removed (Ulp1); label: 5'-biotin (BLI)

Molecule: ACAAGGCCTGAAAAGAGATTGTGGATTGCGAATTAATGAAATTAACCTAATCTTTTCCATTCGGCAGCCGGGCCGCGGGCCGGCCGAGCTGGGCGGGCGGCCTAATTGCCTTGGTTAATCTCATTAATTCCTTTGTGCCGCCGCAGTTAACAACTCCCTCCGCCCGA (double strand) [Gsc167 linear DNA]
- Kd [1]: 13 nM

Molecule: ACAAGGCCTGAAAAGAGATTGTGGATTGCGAATTAATGAAATTAACCTAATCTTTTCCATTCGGCAGCCGGGCCGCGGGCCGGCCGAGCTGGGCGGGCGGCCTAATTGCCTTGGTTAATCTCATTAATTCCTTTGTGCCGCCGCAGTTAACAACTCCCTCCGCCCGA (double strand) [Gsc167 nucleosome]
- Kd [1]: 5 nM
- Kd (hFoxA2 FH (Homo sapiens)): 30 nM

B1: dGSC-GG-16a (dsDNA)
DNA 1: AGATTGTGGATTGAGA
DNA 2: TCTCAATCCACAATCT
- binding result (dFoxH1 FH [2]): binds

B2: dGSC-GT-16a (dsDNA)
DNA 1: AGATTGTGTATTGAGA
DNA 2: TCTCAATACACAATCT
- binding result (dFoxH1 FH [2]): binds

B3: dGSC-TT-16a (dsDNA)
DNA 1: AGATTGTTTATTGAGA
DNA 2: TCTCAATAAACAATCT
- binding result (dFoxH1 FH [3]): binds
- binding result (hFoxA2 FH [4]): binds

B4: FKH-TTACT-GSCflank (dsDNA)
DNA 1: AGATTGTTTACTGAGA
DNA 2: TCTCAGTAAACAATCT
- binding result (dFoxH1 FH [3]): binds
- binding result (hFoxA2 FH [4]): binds

B5: TT forkhead DNA, 16 bp (EMSA) (dsDNA)
DNA 1: AGATTGTTTACTGAGA
DNA 2: TCTCAGTAAACAATCT
- binding result (hFoxA2 FH [5]): binds

B6: Gsc167 linear DNA (dsDNA)
DNA 1: ACAAGGCCTGAAAAGAGATTGTGGATTGCGAATTAATGAAATTAACCTAATCTTTTCCATTCGGCAGCCGGGCCGCGGGCCGGCCGAGCTGGGCGGGCGGCCTAATTGCCTTGGTTAATCTCATTAATTCCTTTGTGCCGCCGCAGTTAACAACTCCCTCCGCCCGA
DNA 2: TCGGGCGGAGGGAGTTGTTAACTGCGGCGGCACAAAGGAATTAATGAGATTAACCAAGGCAATTAGGCCGCCCGCCCAGCTCGGCCGGCCCGCGGCCCGGCTGCCGAATGGAAAAGATTAGGTTAATTTCATTAATTCGCAATCCACAATCTCTTTTCAGGCCTTGT
- Kd (hFoxA2 FH [6]): 800 nM
